Drawing on article PMC9677429, “The Role of Electrostatic Interactions in IFIT5-RNA Complexes Predicted by the UBDB+EPMM Method”, this text covers Kd for 1 molecule.

What all share (settings): protein: recombinant; tags: N-terminal His tag (pETG10a); label: 3'-Cy5; single strand, 12 nt
For one data set, the target named is T1, IFIT5 K150M (UniProt Q13325 1-482, K150M).
T1 sequence: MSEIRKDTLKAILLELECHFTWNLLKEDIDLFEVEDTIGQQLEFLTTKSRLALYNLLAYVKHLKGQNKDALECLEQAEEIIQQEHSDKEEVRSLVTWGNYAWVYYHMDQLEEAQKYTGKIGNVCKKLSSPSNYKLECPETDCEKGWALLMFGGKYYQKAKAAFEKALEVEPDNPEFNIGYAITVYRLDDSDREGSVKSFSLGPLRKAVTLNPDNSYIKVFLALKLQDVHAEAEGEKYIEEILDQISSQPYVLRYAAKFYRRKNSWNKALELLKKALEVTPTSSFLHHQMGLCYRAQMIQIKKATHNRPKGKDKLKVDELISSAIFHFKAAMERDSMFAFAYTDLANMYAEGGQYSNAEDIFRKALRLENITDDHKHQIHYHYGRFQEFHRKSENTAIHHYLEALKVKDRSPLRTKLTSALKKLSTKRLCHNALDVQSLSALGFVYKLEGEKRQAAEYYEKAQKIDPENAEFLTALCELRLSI
Description: MST; apparent; 1 mM Mg2+; MST: PBS, 5% glycerol, 0.5 mM TCEP, 0.05% Tween20, +/-1 mM MgCl2 (K150M always with 1 mM MgCl2), 10 nM Cy5-RNA, 22 C, 10 min incubation; pH not stated.

The target in data set [1] is T2, IFIT5 WT (UniProt Q13325 1-482).
T2 sequence: T1 sequence with M150K
Nature of the data set: MST; apparent; replicates with and without 1 mM Mg2+ pooled; MST: PBS, 5% glycerol, 0.5 mM TCEP, 0.05% Tween20, +/-1 mM MgCl2 (K150M always with 1 mM MgCl2), 10 nM Cy5-RNA, 22 C, 10 min incubation; pH not stated.

Data set [2] concerns the target T3, IFIT5 Q41E/K150M/R253M (UniProt Q13325 1-482, Q41E;K150M;R253M).
T3 sequence: T1 sequence with Q41E, R253M
The description is as above.

Data set [3] addresses T2, IFIT5 WT. Description: MST; apparent, single replicate; no Mg2+ (assignment by word order); MST: PBS, 5% glycerol, 0.5 mM TCEP, 0.05% Tween20, +/-1 mM MgCl2 (K150M always with 1 mM MgCl2), 10 nM Cy5-RNA, 22 C, 10 min incubation; pH not stated.
Data set [4] deals with T3, IFIT5 Q41E/K150M/R253M. The data set is described as above.
Data set [5] concerns the target T2, IFIT5 WT. Nature of the data set: MST; apparent, single replicate; 1 mM Mg2+ (assignment by word order); MST: PBS, 5% glycerol, 0.5 mM TCEP, 0.05% Tween20, +/-1 mM MgCl2 (K150M always with 1 mM MgCl2), 10 nM Cy5-RNA, 22 C, 10 min incubation; pH not stated.
Data set [6] concerns the target T3, IFIT5 Q41E/K150M/R253M. The data set is described as above.

Substitutions are numbered along the chain they refer to. Where “and” joins values, the source holds several entries; their conditions need not be identical. Equal entries are not always repeated.

For the molecule AAAAAGGAAGGU (ssRNA, 5'-triphosphate) [5'-ppp-AAAAAGGAAGGU-Cy5], the Kd was 204 nM with IFIT5 K150M; 13.4 nM with IFIT5 WT [1]; 1980 nM in the data set with IFIT5 Q41E/K150M/R253M [2]; 8.87 nM in the data set with IFIT5 WT [3]; 1700 nM with IFIT5 Q41E/K150M/R253M [4]; 12.7 nM and 13.7 nM and 23 nM with IFIT5 WT [5]. Moreover, the Kd with IFIT5 Q41E/K150M/R253M [6] worked out at 2340 nM.
